Test results from US20250388643A1, “GLUCAGON-LIKE PEPTIDE-2 COMPOSITIONS AND METHODS OF MAKING AND USING SAME” (Amunix Pharmaceuticals, Inc., priority 2011, published 2025).
One block for each molecule: values may come before it.

Legend:
[1] = Analytical size exclusion chromatography of XTEN fusion proteins with diverse payloads; assay type: physicochemical; conditions: SEC
Experimental: Size exclusion chromatography analyses were performed on fusion proteins containing various therapeutic proteins and unstructured recombinant proteins of increasing length. […] Chromatogram profiles were monitored using OD214 nm and OD280 nm. Column calibration for all assays were performed using a size exclusion calibration standard from BioRad; the markers include thyroglobulin (670 kDa), bovine gamma-globulin (158 kDa), chicken ovalbumin (44 kDa), equine myoglobuin (17 kDa) and vitamin B12 (1.35 kDa). […] Based on the SEC analyses for all constructs evaluated, the apparent molecular weights, the apparent molecular weight factor (expressed as the ratio of apparent molecular weight to the calculated molecular weight) and the hydrodynamic radius (RH in nm) are shown in Table 23. […] Accordingly, it is expected that fusion proteins comprising growth and XTEN have reduced renal clearance, contributing to increased terminal half-life and improving the therapeutic or biologic effect relative to a corresponding un-fused biologic payload protein.

[2] = target: T1, GLP-2 receptor (GLP2 G-protein coupled receptor) on transfected GLP2R cell line (Millipore, Cat #HTS164C) (human, UniProt O95838 1-553); assay: cell-based or functional assay
T1 sequence (looked up): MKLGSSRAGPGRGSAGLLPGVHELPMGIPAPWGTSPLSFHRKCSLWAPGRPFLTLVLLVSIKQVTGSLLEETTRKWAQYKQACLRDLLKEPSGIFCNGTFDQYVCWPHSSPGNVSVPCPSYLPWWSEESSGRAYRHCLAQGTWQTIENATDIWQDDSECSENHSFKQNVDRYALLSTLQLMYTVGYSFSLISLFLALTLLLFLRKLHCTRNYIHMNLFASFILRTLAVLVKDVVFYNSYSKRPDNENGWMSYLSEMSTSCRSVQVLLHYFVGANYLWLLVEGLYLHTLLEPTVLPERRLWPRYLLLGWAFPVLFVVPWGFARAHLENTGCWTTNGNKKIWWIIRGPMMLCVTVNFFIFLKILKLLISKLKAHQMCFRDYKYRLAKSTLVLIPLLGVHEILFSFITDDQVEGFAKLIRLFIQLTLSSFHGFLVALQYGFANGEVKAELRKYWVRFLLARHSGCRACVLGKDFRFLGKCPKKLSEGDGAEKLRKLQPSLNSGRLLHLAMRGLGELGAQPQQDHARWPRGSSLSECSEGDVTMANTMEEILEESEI

B1: Glucagon-Y288: glucagon fused to unstructured polypeptide Y288 (protein)
chain: HSQGTFTSDYSKYLDSRRAQDFVQWLMNTGGEGSGEGSEGEGSEGSGEGEGSEGSGEGEGGSEGSEGEGGSEGSEGEGGSEGSEGEGSGEGSEGEGGSEGSEGEGSGEGSEGEGSEGGSEGEGGSEGSEGEGSGEGSEGEGGEGGSEGEGSEGSGEGEGSGEGSEGEGSEGSGEGEGSGEGSEGEGSEGSGEGEGSEGSGEGEGGSEGSEGEGSEGSGEGEGGEGSGEGEGSGEGSEGEGGGEGSEGEGSGEGGEGEGSEGGSEGEGGSEGGEGEGSEGSGEGEGSEGGSEGEGSEGGSEGEGSEGSGEGEGSEGSGE
hydrodynamic radius [1]: ≥ 7 nm

EC50 (calcium flux, FLIPR TETRA, GLP2R cell line) [2]: 370 nM | potency relative to GLP2-2G (calcium flux, GLP2R cell line) [2]: ~2%
B2: GLP2-2G-XTEN_AE864 fusion protein (ligand)
chain: HGDGSFSDEMNTILDNLAARDFINWLIQTKITDGGSPAGSPTSTEEGTSESATPESGPGTSTEPSEGSAPGSPAGSPTSTEEGTSTEPSEGSAPGTSTEPSEGSAPGTSESATPESGPGSEPATSGSETPGSEPATSGSETPGSPAGSPTSTEEGTSESATPESGPGTSTEPSEGSAPGTSTEPSEGSAPGSPAGSPTSTEEGTSTEPSEGSAPGTSTEPSEGSAPGTSESATPESGPGTSTEPSEGSAPGTSESATPESGPGSEPATSGSETPGTSTEPSEGSAPGTSTEPSEGSAPGTSESATPESGPGTSESATPESGPGSPAGSPTSTEEGTSESATPESGPGSEPATSGSETPGTSESATPESGPGTSTEPSEGSAPGTSTEPSEGSAPGTSTEPSEGSAPGTSTEPSEGSAPGTSTEPSEGSAPGTSTEPSEGSAPGSPAGSPTSTEEGTSTEPSEGSAPGTSESATPESGPGSEPATSGSETPGTSESATPESGPGSEPATSGSETPGTSESATPESGPGTSTEPSEGSAPGTSESATPESGPGSPAGSPTSTEEGSPAGSPTSTEEGSPAGSPTSTEEGTSESATPESGPGTSTEPSEGSAPGTSESATPESGPGSEPATSGSETPGTSESATPESGPGSEPATSGSETPGTSESATPESGPGTSTEPSEGSAPGSPAGSPTSTEEGTSESATPESGPGSEPATSGSETPGTSESATPESGPGSPAGSPTSTEEGSPAGSPTSTEEGTSTEPSEGSAPGTSESATPESGPGTSESATPESGPGTSESATPESGPGSEPATSGSETPGSEPATSGSETPGSPAGSPTSTEEGTSTEPSEGSAPGTSTEPSEGSAPGSEPATSGSETPGTSESATPESGPGTSTEPSEGSAPG
